Source: patent US20020058275A1, “Compositions, kits, and methods for effecting adenine nucleotide modulation of DNA mismatch recognition proteins” (Thomas Jefferson University, priority 1997, published 2002)

Key:
Experiment in all cases: GST fusion protein interaction assay
Conditions in all cases: 35S-labeled IVTT protein as prey
GST-hMSH2 = molecular target: T1, GST-hMSH2 (Homo sapiens, UniProt P43246); format: binding
T1 construct: made in house; host or cells: E. coli (XL-blue), pGEX
Description: (§1) An overnight culture of E. coli XL-blue cells which harbored pGEX-hMSH(X) (i.e. ‘X’ being 2, 3, or 6) was grown in LB with […] ampicillin. 50 milliliter of Luria broth containing ampicillin was inoculated with 1 milliliter of the overnight culture, and the culture was incubated until the optical density, as assessed at 600 nanometers, was about 0.5. IPTG was added to a final concentration of 0.1 millimolar, and the culture container placed in a shaker at 30° C. for 2 hours to generate induced cells. […] GST-fusion protein levels were quantified as described herein. […] GST-fusion protein expression levels were quantitated by Coomassie Brilliant Blue staining of protein separated by SDS-PAGE gels, using BSA as a standard.
(§2) In vitro transcription and translation (IVTT) reactions involving ^35S-Methionine were performed with pET-hMSH(Y) (i.e. where ‘Y’ was 2, 3, or 6) using purified DNA according to the manufacturers recommendations. […] This value was calculated using the specific activity of ^35 S-Methionine, correcting for the number of methionine residues in each IVTT construct and using SDS-PAGE and a Molecular Dynamics Phosphorlmager device equipped with ImageQuant software (Sunnyvale, Calif.). […]

GST-hMSH6 = molecular target: T2, GST-hMSH6 (Homo sapiens, UniProt P52701); format: binding
T2 construct: GST fusion proteins which comprised either full length hMSH3 or full length hMSH6; made in house; host or cells: E. coli (XL-blue), pGEX
Description: as §1, §2

GST-hMSH3 = format: binding, human
Description: as §1, §2

T2 sequence (P52701 whole entry, the tested form may be a part): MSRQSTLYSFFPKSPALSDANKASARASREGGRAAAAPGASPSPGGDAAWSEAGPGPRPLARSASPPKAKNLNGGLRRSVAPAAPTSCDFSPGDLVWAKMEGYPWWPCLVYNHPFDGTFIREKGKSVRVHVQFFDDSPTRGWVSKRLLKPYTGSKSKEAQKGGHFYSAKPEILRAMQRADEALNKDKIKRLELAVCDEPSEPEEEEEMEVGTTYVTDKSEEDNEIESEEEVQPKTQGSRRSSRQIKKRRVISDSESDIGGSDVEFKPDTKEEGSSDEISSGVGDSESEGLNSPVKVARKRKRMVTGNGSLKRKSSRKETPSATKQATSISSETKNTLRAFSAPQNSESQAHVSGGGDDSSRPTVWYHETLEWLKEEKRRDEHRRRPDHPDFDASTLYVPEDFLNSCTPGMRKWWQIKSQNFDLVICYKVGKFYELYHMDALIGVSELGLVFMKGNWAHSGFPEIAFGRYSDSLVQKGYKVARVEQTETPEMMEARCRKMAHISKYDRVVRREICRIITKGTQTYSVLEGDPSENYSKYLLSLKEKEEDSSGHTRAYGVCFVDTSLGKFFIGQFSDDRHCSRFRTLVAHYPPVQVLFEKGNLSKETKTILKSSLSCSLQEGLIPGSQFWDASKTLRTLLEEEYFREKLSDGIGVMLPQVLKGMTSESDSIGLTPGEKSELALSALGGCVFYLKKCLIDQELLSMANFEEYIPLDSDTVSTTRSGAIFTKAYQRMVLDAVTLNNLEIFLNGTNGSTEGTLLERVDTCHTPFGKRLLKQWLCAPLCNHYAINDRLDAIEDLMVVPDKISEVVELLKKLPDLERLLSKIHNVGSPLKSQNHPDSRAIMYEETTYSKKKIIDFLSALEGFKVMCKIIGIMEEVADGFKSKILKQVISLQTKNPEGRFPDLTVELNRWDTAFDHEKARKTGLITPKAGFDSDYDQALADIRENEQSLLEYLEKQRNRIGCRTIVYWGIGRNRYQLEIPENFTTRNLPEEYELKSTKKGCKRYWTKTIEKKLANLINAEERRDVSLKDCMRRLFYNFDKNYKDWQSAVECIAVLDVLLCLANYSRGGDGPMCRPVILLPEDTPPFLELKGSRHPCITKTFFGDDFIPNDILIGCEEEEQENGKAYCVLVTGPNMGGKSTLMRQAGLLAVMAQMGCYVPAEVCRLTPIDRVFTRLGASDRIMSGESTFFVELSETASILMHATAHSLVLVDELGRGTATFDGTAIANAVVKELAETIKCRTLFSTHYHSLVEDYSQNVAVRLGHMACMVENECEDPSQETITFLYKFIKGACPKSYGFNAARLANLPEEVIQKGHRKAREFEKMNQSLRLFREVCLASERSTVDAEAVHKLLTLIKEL
T1 sequence (P43246 whole entry): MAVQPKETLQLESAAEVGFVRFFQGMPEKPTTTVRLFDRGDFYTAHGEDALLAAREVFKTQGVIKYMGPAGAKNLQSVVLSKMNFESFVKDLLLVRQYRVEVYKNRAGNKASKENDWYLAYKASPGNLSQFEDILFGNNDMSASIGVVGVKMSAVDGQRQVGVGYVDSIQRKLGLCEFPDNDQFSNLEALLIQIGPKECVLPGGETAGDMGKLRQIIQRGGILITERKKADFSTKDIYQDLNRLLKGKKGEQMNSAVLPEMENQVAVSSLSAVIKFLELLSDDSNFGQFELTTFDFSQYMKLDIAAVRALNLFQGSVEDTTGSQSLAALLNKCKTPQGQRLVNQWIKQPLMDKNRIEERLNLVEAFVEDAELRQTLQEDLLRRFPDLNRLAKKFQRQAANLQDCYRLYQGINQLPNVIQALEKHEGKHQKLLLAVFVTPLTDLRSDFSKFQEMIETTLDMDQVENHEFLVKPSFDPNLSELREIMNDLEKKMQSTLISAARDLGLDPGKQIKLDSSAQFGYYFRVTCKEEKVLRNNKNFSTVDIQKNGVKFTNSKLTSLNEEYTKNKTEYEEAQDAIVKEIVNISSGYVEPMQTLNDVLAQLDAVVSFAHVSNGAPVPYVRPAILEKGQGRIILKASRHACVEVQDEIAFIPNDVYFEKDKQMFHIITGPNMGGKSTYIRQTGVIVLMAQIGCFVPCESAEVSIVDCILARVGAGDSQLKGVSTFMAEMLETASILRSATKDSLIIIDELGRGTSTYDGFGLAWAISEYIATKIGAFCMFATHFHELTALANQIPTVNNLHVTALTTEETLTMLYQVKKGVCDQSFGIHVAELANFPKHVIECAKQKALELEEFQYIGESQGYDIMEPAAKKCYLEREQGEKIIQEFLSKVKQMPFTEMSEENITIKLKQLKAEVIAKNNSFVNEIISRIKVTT

B1: hMSH5: human MutS homolog, putative 834-amino-acid protein encoded by clone b29 (SEQ ID NO: 29) (protein)
chain: MASLGANPRRTPQGPRPGAASSGFPSPAPVPGPREAEEEEVEEEEELAEIHLCVLWNSGYLGIAYYDTSDSTIHFMPDAPDHESLKLLQRVLDEINPQSVVTSAKQDENMTRFLGKLASQEHREPKRPEIIFLPSVDFGLEISKQRLLSGNYSFIPDAMTATEKILFLSSIIPFDCLLTVRALGGLLKFLGRRRIGVELEDYNVSVPILGFKKFMLTHLVNIDQDTYSVLQIFKSESHPSVYKVASGLKEGLSLFGILNRCHCKWGEKLLRLWFTRPTHDLGELSSRLDVIQFFLLPQNLDMAQMLHRLLGHIKNVPLILKRMKLSHTKVSDWQVLYKTVYSALGLRDACRSLPQSIQLFRDIAQEFSDDLHHIASLIGKVVDFEGSLAENRFTVLPNIDPEIDEKKRRLMGLPSFLTEVARKELENLDSRIPSCSVIYIPLIGFLLSIPRLPSMVEASDFEINGLDFMFLSEEKLHYRSARTKELDALLGDLHCEIRDQETLLMYQLQCQVLARAAVLTRVLDLASRLDVLLALASAARDYGYSRPRYSPQVLGVRIQNGRHPLMELCARTFVPNSTECGGDKGRVKVITGPNSSGKSIYLKQVGLITFMALVGSFVPAEEAEIGAVDAIFTRIHSCESISLGLSTFMIDLNQVAKAVNNATAQSLVLIDEFGKGTNTVDGLALLAAVLRHWLARGPTCPHIFVATNFLSLVQLQLLPQGPLVQYLTMETCEDGNDLVFFYQVCEGVAKASHASHTAAQAGLPDKLVARGKEVSDLIRSGKPIKPVKDLLKKNQMENCQTLVDKFMKLDLEDPNLDLNVFMSQEVLPAATSIL
modifications: left off: a dimerising Fc or GST; large carriers; small tags and cut ends
did not interact: interaction with GST-hMSH2 fusion protein (GST-hMSH2) | interaction with GST-hMSH6 fusion protein (GST-hMSH6) | interaction with GST-hMSH3 fusion protein (GST-hMSH3)
